Our source for the activity and binding signal (normalized ELISA) values is patent US20110301073.

Data set [1] has as its system POU5F1 TALEN 101138 (Xanthomonas sp. (engineered)). Description: cell_activity. As to conditions: paired with 101229.
In data set [2] the test system is TALE test backbone, repeat 5 RVD NS (synthetic (Xanthomonas TALE)). As to conditions: ELISA. A general note: In an ELISA, binding on a coated surface is turned into a signal by an enzyme label.
For data set [3], the system named is TALE test backbone, repeat 5 RVD HA (synthetic (Xanthomonas TALE)). As to conditions: ELISA.
The test system of data set [4] is TALE test backbone, repeat 5 RVD TP (Xanthomonas sp. (engineered)). As to conditions: RVD TP.
Data set [5] has as its system TALE test backbone, repeat 5 RVD HI (synthetic (Xanthomonas TALE)). As to conditions: ELISA.
In data set [6] the test system is TALE test backbone, repeat 5 RVD VG (Xanthomonas sp. (engineered)). As to conditions: RVD VG.
The subject of data set [7] is TALE test backbone, repeat 5 RVD HD, standard framework (SEQ 333) (Xanthomonas sp. (engineered)). As to conditions: RVD HD.
Data set [8] concerns TALE test backbone, repeat 5 RVD AA (synthetic (Xanthomonas TALE)). As to conditions: ELISA.
The subject of data set [9] is TALE test backbone, repeat 5 RVD AE (synthetic (Xanthomonas TALE)). As to conditions: ELISA.
The subject of data set [10] is TALE test backbone, repeat 5 RVD TA (synthetic (Xanthomonas TALE)). As to conditions: ELISA.
For data set [11], the system named is TALE test backbone, repeat 5 RVD SG (synthetic (Xanthomonas TALE)). As to conditions: ELISA.
The subject of data set [12] is TALE test backbone, repeat 5 RVD KT (synthetic (Xanthomonas TALE)). As to conditions: ELISA.
Data set [13] has as its system TALE test backbone, repeat 5 RVD NI (Xanthomonas sp. (engineered)). As to conditions: RVD NI.
Data set [14] deals with TALE test backbone, repeat 5 RVD IA (Xanthomonas sp. (engineered)). As to conditions: RVD IA.
In data set [15] the test system is TALE test backbone, repeat 5 RVD NG (Xanthomonas sp. (engineered)). As to conditions: RVD NG.
Data set [16] has as its system TALE test backbone, repeat 5 RVD IG (synthetic (Xanthomonas TALE)). As to conditions: ELISA.
Data set [17] concerns TALE test backbone, repeat 5 RVD HG (synthetic (Xanthomonas TALE)). As to conditions: ELISA.
Data set [18] relates to TALE test backbone, repeat 5 RVD QA (synthetic (Xanthomonas TALE)). As to conditions: ELISA.
Data set [19] concerns TALE test backbone, repeat 5 RVD KI (synthetic (Xanthomonas TALE)). As to conditions: ELISA.
Data set [20] concerns TALE test backbone, repeat 5 RVD NA (synthetic (Xanthomonas TALE)). As to conditions: ELISA.
Data set [21] deals with TALE test backbone, repeat 5 RVD GG (synthetic (Xanthomonas TALE)). As to conditions: ELISA.
Data set [22] has as its system TALE test backbone, repeat 5 RVD AN (synthetic (Xanthomonas TALE)). As to conditions: ELISA.
The subject of data set [23] is TALE test backbone, repeat 5 RVD DK (synthetic (Xanthomonas TALE)). As to conditions: ELISA.
The test system of data set [24] is TALE test backbone, repeat 5 RVD RA (synthetic (Xanthomonas TALE)). As to conditions: ELISA.
For data set [25], the system named is TALE test backbone, repeat 5 RVD KG (synthetic (Xanthomonas TALE)). As to conditions: ELISA.
The test system of data set [26] is TALE test backbone, repeat 5 RVD RI (synthetic (Xanthomonas TALE)). As to conditions: ELISA.
In data set [27] the test system is TALE test backbone, repeat 5 RVD KD (synthetic (Xanthomonas TALE)). As to conditions: ELISA.
Data set [28] relates to TALE test backbone, repeat 5 RVD LA (synthetic (Xanthomonas TALE)). As to conditions: ELISA.
Data set [29] deals with TALE test backbone, repeat 5 RVD SN (synthetic (Xanthomonas TALE)). As to conditions: ELISA.
The subject of data set [30] is TALE test backbone, repeat 5 RVD ND (synthetic (Xanthomonas TALE)). As to conditions: ELISA.
In data set [31] the test system is TALE test backbone, repeat 5 RVD IP (synthetic (Xanthomonas TALE)). As to conditions: ELISA.
Data set [32] concerns TALE test backbone, repeat 5 RVD QG (synthetic (Xanthomonas TALE)). As to conditions: ELISA.
The subject of data set [33] is TALE test backbone, repeat 5 RVD RG (synthetic (Xanthomonas TALE)). As to conditions: ELISA.
For data set [34], the system named is TALE test backbone, repeat 5 RVD AD (synthetic (Xanthomonas TALE)). As to conditions: ELISA.
Data set [35] has as its system TALE test backbone, repeat 5 RVD YG (synthetic (Xanthomonas TALE)). As to conditions: ELISA.
The test system of data set [36] is TALE test backbone, repeat 5 RVD HN (synthetic (Xanthomonas TALE)). As to conditions: ELISA.
The subject of data set [37] is TALE test backbone, repeat 5 RVD DH (synthetic (Xanthomonas TALE)). As to conditions: ELISA.
The test system of data set [38] is TALE test backbone, repeat 5 RVD KS (synthetic (Xanthomonas TALE)). As to conditions: ELISA.
Data set [39] has as its system TALE test backbone, repeat 5 RVD AT (synthetic (Xanthomonas TALE)). As to conditions: ELISA.
Data set [40] relates to POU5F1 TALEN 101125 (Xanthomonas sp. (engineered)). The data set can be described thus: cell_activity. As to conditions: paired with 101225.
Data set [41] concerns POU5F1 TALEN 101229 (half repeat for G) (Xanthomonas sp. (engineered)). Description: cell_activity. As to conditions: paired with 101138.
In data set [42] the test system is TALE test backbone, repeat 5 RVD DH (Xanthomonas sp. (engineered)). As to conditions: RVD DH.
The test system of data set [43] is TALE test backbone, repeat 5 RVD IA (synthetic (Xanthomonas TALE)). As to conditions: ELISA.
The test system of data set [44] is TALE test backbone, repeat 5 RVD AK (Xanthomonas sp. (engineered)). As to conditions: RVD AK; other bases 0.00-0.01.
Data set [45] concerns TALE test backbone, repeat 5 RVD NN (Xanthomonas sp. (engineered)). As to conditions: RVD NN.
The subject of data set [46] is TALE test backbone, repeat 5 RVD NK (Xanthomonas sp. (engineered)). As to conditions: RVD NK; other bases 0.00.
Data set [47] has as its system TALE test backbone, repeat 5 RVD KN (Xanthomonas sp. (engineered)). As to conditions: RVD KN.
The test system of data set [48] is TALE test backbone, repeat 5 RVD TP (synthetic (Xanthomonas TALE)). As to conditions: ELISA.
The subject of data set [49] is TALE test backbone, repeat 5 RVD VG (synthetic (Xanthomonas TALE)). As to conditions: ELISA.
Data set [50] has as its system TALE test backbone, repeat 5 RVD SN (Xanthomonas sp. (engineered)). As to conditions: RVD SN.
The test system of data set [51] is POU5F1 TALEN 101225 (NN half repeat) (Xanthomonas sp. (engineered)). Description: cell_activity. As to conditions: paired with 101125; NN half repeat.

“CTGGGCTCTCCCAT (double strand) [101138 site]”: in data set [1], the activity was determined as 25.6 % NHEJ.

As to “TTGACTATCCT (double strand) [CTA target]”, the binding signal (normalized ELISA) in [2] was found to be 0.54; in data set [3] it was 1.54; in data set [4], 1.2; in data set [5], 0.04; in data set [6] it was 0.56; in [7] it was 0.09. Further, the binding signal (normalized ELISA) in data set [8] was found to be 0.61; in data set [9], 0; in data set [10], 0.76; in [11] it was 1.23; in data set [12], 0.67; in [13], 0.02. The binding signal (normalized ELISA) in data set [14] turned out to be 1.2; in data set [15] it was 1.3; in data set [16], 0.68; in data set [17] it was 1.49; in [18], 1.24; in [19] it was 0.04. Besides, the binding signal (normalized ELISA) in data set [20] was found to be 1.72; in data set [21] it was 1.52; in [22], 0.01; in data set [23], 0; in data set [24], 1.64; in data set [25], 1.29. Also, the binding signal (normalized ELISA) in [26] came out at 0.02; in data set [27], 0.05; in data set [28] it was 0.51; in data set [29] it was 0.02; in data set [30] it was 0.02; in [31], 0.84. The binding signal (normalized ELISA) in [32] worked out at 1.09; in data set [33], 0.87; in data set [34], 0.01; in data set [35], 0.79; in [36] it was 0.01; in data set [37] it was 0.03. In addition, the figures for the binding signal (normalized ELISA) in data set [38] and in [39] were 0.81 and 0.56, respectively.

In [40], “GACCCTGCCTGCTCCT (double strand) [101125 site]” registered an activity of 5 % NHEJ.

As for “CCCCCATTCCTAGAAGG (double strand) [101229 site]”, in data set [41], the activity amounted to 25.6 % NHEJ.

Regarding “TTGACGATCCT (double strand) [CGA target]”, the binding signal (normalized ELISA) turned out to be 0.71 in data set [2]; 0.36 in data set [42]; 0.24 in data set [3]; 0.04 in data set [5]; 0.02 in [43]; 0 in data set [7]. The binding signal (normalized ELISA) in [8] was 0.06; in data set [9], 0; in data set [10], 0.01; in data set [11], 0.2; in data set [44], 0.21; in data set [12] it was 0.83. In addition, the binding signal (normalized ELISA) in data set [45] was 0.81; in data set [13], 0.02; in data set [16], 0.01; in [17] it was 0.11; in data set [18], 0.03; in [46], 0.15. Besides, the binding signal (normalized ELISA) was found to be 0.02 in data set [19]; 0.41 in data set [20]; 0.25 in [21]; 0.87 in data set [22]; 1 in data set [47]; 0.15 in data set [23]. Besides, the binding signal (normalized ELISA) in [24] was 0.53; in data set [25] it was 0.2; in [26], 0.02; in [27], 0; in [28] it was 0; in [30], 0. Also, the binding signal (normalized ELISA) was 0.01 in [48]; 0 in data set [31]; 0.05 in [32]; 0.12 in data set [33]; 0 in [34]; 0.01 in data set [49]. The binding signal (normalized ELISA) in data set [35] was 0.01; in [36] it was 0.86; in data set [38], 0.74; in [39], 0.76; in data set [50], 0.92.

Turning to “CACCTGCAGCTGCCCAG (double strand) [101225 site]”, the activity in data set [51] is 5 % NHEJ.
